Source: patent US6551840B2, “Method of screening TGF-β-inhibiting substances” (Chugai Seiyaku Kabushiki Kaisha, priority 1997, dated 2003)

T1: binding between TAK1 and TAB1 (Homo sapiens, UniProt O43318)
T1 construct: amino acid Met at amino acid position 1 to amino acid Ser at amino acid position 579; made in house; host or cells: COS-7 cells transfected with pCOS-TAK1 or pCOS-FTAB1; unpurified cell extracts
T1 sequence (O43318 1-579 isoform O43318-2): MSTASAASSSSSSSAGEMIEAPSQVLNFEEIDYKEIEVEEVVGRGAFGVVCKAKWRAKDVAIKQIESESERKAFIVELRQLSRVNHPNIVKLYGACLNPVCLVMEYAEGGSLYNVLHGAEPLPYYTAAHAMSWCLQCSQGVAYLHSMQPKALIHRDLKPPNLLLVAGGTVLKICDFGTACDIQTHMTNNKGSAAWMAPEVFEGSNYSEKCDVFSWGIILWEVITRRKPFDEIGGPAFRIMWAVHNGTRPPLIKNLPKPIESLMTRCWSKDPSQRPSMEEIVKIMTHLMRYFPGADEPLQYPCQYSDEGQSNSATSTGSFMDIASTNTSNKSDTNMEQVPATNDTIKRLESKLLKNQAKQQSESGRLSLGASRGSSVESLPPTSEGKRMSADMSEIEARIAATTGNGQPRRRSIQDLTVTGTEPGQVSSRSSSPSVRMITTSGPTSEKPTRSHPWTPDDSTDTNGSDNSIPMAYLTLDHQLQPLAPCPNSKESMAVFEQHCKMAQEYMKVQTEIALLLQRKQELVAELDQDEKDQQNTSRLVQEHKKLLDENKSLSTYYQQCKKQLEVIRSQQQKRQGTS

T2: binding between the recombinant MBP-TAB1C-FLAG polypeptide and the recombinant TAK1 polypeptide (Homo sapiens, UniProt O43318)
T2 construct: amino acid Met at amino acid position 1 to amino acid Ser at amino acid position 579; made in house; host or cells: TAK1-6xHis: Sf9/baculovirus; MBP-TAB1C-FLAG: E. coli periplasm (pMAL-p2)
T2 sequence (O43318 1-579 isoform O43318-2): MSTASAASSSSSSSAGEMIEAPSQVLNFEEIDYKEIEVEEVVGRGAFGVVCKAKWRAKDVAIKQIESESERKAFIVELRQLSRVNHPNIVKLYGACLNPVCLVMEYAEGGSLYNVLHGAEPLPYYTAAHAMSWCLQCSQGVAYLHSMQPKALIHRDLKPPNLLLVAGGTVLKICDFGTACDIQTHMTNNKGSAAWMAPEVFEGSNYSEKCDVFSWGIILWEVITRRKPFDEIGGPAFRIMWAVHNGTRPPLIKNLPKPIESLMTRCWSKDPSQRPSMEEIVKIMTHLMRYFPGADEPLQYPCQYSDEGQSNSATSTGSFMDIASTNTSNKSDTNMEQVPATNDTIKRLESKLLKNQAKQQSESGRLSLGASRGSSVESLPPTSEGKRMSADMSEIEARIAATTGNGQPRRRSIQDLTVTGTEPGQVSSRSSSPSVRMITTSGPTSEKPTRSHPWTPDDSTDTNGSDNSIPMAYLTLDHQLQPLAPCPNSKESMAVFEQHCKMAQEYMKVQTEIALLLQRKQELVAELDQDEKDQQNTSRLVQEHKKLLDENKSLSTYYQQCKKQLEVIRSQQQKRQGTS

T3: human TAK1-6×His polypeptide (Homo sapiens, UniProt O43318)
T3 construct: amino acid Met at amino acid position 1 to amino acid Ser at amino acid position 579; made in house; host or cells: Sf9 insect cells, recombinant baculovirus
T3 sequence (O43318 1-579 isoform O43318-2): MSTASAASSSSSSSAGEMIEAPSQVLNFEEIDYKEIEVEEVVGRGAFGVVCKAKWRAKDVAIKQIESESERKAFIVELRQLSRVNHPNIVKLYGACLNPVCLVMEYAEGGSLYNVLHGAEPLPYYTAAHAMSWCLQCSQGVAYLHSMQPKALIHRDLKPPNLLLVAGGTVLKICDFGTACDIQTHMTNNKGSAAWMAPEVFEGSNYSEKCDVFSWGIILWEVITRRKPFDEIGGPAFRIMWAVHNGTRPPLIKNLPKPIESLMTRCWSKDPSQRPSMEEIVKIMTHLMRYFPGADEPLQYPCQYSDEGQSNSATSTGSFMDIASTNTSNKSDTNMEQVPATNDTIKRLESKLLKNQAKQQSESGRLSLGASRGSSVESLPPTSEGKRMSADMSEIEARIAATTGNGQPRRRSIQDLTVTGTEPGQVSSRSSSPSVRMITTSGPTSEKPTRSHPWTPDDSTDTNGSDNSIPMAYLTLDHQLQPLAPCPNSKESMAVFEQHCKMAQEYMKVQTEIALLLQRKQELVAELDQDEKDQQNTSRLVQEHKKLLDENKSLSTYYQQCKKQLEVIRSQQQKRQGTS


Key:
[1] = molecular target: T1, binding between TAK1 and TAB1; experiment: Immunoprecipitation and Western analysis binding-inhibition study using synthetic peptides; set-up: dose or concentration left out as unconfirmed; details: COS-7 cell extracts with TAK1-6×His or FLAG-TAB1; compared to no peptide
Description: The fact that a synthetic peptide containing the amino acid sequence identified as the TAK1 binding region can inhibit binding between TAK1 and TAB1 was confirmed by the following experiment. Thus, a peptide TAB1C-1 (SEQ ID NO: 40) comprising 16 amino acid residues containing the TAK1 binding region of TAB1 described in the above Example and a control peptide TAB1C-2 (SEQ ID NO: 41) containing an amino acid sequence from Gln at position 437 to Gln at position 451 of TAB1 were each synthesized, and were evaluated for their effects on the binding between TAK1 and TAB1. The TAK1 and TAB1 used in the present invention were prepared in the following manner. […]
Subsequently, cell extracts each containing TAK1-6×His or FLAG-TAB1 and a 5 mM synthetic peptide were mixed to a final concentration of […], respectively, and then incubated overnight at 4° C. It was then immunoprecipitated using anti-TAK1 antibody, and the amount of bound TAK1 and TAB1 was evaluated by determining the amount of TAB1 that coprecipitated by Western analysis. […] After it was blocked using a TBS solution containing 5% BSA, TAK1 in the immunoprecipitate was detected using anti-TAK1 antibody (manufactured by SantaCruz) and the coprecipitataed FLAG-TAB1 was detected using anti-FLAG M2 antibody (manufactured by Kodak). […]

[2] = molecular target: T2, binding between the recombinant MBP-TAB1C-FLAG polypeptide and the recombinant TAK1 polypeptide; experiment: ELISA binding-inhibition study with TAB1-FLAG as inhibiting substance; details: serially diluted TAB1-FLAG added together with MBP-TAB1C-FLAG
Method: It was investigated whether the recombinant human TAB1-FLAG polypeptide used as an inhibiting substance inhibits binding between the recombinant MBP-TAB1C-FLAG polypeptide and the recombinant TAK1 polypeptide.
In a similar manner to that in the above 5-1 (2), the recombinant human TAK1-6×His polypeptide was immobilized and was blocked. Then the recombinant human TAB1-FLAG polypeptide that was serially diluted in the dilution buffer was added as a binding-inhibiting substance to each well together with 16.5 μl each of the recombinant MBP-TAB1C-FLAG polypeptide and incubated.

[3] = molecular target: T3, human TAK1-6×His polypeptide; experiment: ELISA in vitro binding-evaluation system: MBP-TAB1C-FLAG on immobilized TAK1-6×His; details: 100 ng TAK1-6×His per well; no increase where TAK1-6×His was not immobilized
Description: Using the purified product obtained as above an ELISA system was constructed to detect in vitro an interaction between the recombinant human TAB1 polypeptide or the recombinant MBP-TAB1C-FLAG polypeptide and the recombinant human-TAK1 polypeptide. In the ELISA system it is intended to contact the recombinant human TAB1-FLAG polypeptide or the human MBP-TAB1C-FLAG polypeptide to a 96-well immunoplate to which the human TAK1-6×His polypeptide had been previously immobilized and thereby to detect the recombinant human TAB1-FLAG polypeptide or the recombinant MBP-TAB1C-FLAG polypeptide using a primary and secondary antibody.
(1) The purified product of human TAK1-6×His polypeptide was diluted in the immobilization buffer (0.1 M NaHCO3, 0.02% NaN3, pH 9.6). To each well of a 96-well immunoplate (manufactured by Nunc) was added 100 μl each of the diluted aqueous solution (equivalent to 100 ng of the human TAK1-6×His polypeptide), and the plate was incubated overnight at 4° C. […]
After each well was washed five times with the wash buffer, 100 μl of the color development solution (the substrate buffer; p-nitrophenyl phosphate dissolved to 1 mg/ml in 50 mM NaHCO3, 10 mM MgCl21 pH 9.8, manufactured by Sigma) was added to each well and was incubated at room temperature, and then absorbance at 405 nm was determined using a microplate reader (Model 3550, manufactured by BIO-RAD).

Molecule	effect on binding between TAK1 and TAB1: amount of coprecipitated FLAG-TAB1 [1]	further results
TAB1C-1: peptide comprising 16 amino acid residues containing the TAK1 binding region of TAB1 (SEQ ID NO: 40) (CVEPYVDFAEFYRGRK; OTHER INFORMATION: Description of Artificial Sequence: Synthetic peptide)	a decrease in the amount of coprecipitated FLAG-TAB1 was observed	
TAB1C-2: control peptide containing an amino acid sequence from Gln at position 437 to Gln at position 451 of TAB1 (SEQ ID NO: 41) (CQSPTLTLQSTNTHTQ; OTHER INFORMATION: Description of Artificial Sequence: Synthetic peptide)	no decrease in binding between TAK1 and TAB1 was observed	
TAB1-FLAG: full-length human TAB1 with a FLAG tag added to the carboxy terminal (SEQ ID NO: 11) (protein, C-terminal FLAG tag) MAAQRRSLLQSEQQPSWTDDLPLCHLSGVGSASNRSYSADGKGTESHPPEDSWLKFRSENNCFLYGVFNGYDGNRVTNFVAQRLSAELLLGQLNAEHAEADVRRVLLQAFDVVERSFLESIDDALAEKASLQSQLPEGVPQHQLPPQYQKILERLKTLEREISGGAMAVVAVLLNNKLYVANVGTNRALLCKSTVDGLQVTQLNVDHTTENEDELFRLSQLGLDAGKIKQVGIICGQESTRRIGDYKVKYGYTDIDLLSAAKSKPIIAEPEIHGAQPLDGVTGFLVLMSEGLYKALEAAHGPGQANQEIAAMIDTEFAKQTSLDAVAQAVVDRVKRIHSDTFASGGERARFCPRHEDMTLLVRNFGYPLGEMSQPTPSPAPAAGGRVYPVSVPYSSAQSTSKTSVTLSLVMPSQGQMVNGAHSASTLDEATPTLTNQSPTLTLQSTNTHTQSSSSSSDGGLFRSRPAHSLPPGEDGRVEPYVDFAEFYRLWSVDHGEQSVVTAPGTGGSDYKDDDDK		inhibition of binding between MBP-TAB1C-FLAG and TAK1-6×His, absorbance [2]: decrease in absorbance dependent on the concentration
MBP-TAB1C-FLAG: fusion polypeptide of 81 amino acids at the carboxy terminal of human TAB1 and maltose-binding protein, with FLAG tag (protein, left off: large carriers) ASTLDEATPTLTNQSPTLTLQSTNTHTQSSSSSSDGGLFRSRPAHSLPPGEDGRVEPYVDFAEFYRLWSVDHGEQSVVTAPDYKDDDDK		binding to immobilized human TAK1-6×His polypeptide, absorbance at 405 nm [3]: absorbance increased depending on the concentration
